From IntAct's records for PubMed 9528782 come the findings set out here.

B1: DBF2 kinase activator protein MOB1 (Saccharomyces cerevisiae), P40484 (parent)
chain: MSFLQNFHISPGQTIRSTRGFKWNTANAANNAGSVSPTKATPHNNTINGNNNNANTINNRADFTNNPVNGYNESDHGRMSPVLTTPKRHAPPPEQLQNVTDFNYTPSHQKPFLQPQAGTTVTTHQDIKQIVEMTLGSEGVLNQAVKLPRGEDENEWLAVHCVDFYNQINMLYGSITEFCSPQTCPRMIATNEYEYLWAFQKGQPPVSVSAPKYVECLMRWCQDQFDDESLFPSKVTGTFPEGFIQRVIQPILRRLFRVYAHIYCHHFNEILELNLQTVLNTSFRHFCLFAQEFELLRPADFGPLLELVMELRDR
partner: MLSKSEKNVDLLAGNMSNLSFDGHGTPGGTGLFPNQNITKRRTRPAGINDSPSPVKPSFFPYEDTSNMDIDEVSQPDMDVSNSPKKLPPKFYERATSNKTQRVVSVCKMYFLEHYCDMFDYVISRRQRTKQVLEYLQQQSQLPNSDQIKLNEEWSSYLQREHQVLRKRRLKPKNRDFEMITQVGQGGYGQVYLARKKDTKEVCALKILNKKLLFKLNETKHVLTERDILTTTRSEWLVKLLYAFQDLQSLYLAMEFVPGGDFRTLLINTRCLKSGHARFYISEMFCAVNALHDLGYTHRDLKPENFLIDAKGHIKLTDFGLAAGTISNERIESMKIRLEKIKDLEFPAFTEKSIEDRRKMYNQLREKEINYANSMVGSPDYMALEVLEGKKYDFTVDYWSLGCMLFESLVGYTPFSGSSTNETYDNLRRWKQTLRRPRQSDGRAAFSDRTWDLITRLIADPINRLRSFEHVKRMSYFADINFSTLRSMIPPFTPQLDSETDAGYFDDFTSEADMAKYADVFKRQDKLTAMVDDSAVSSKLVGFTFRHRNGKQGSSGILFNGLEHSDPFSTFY
B2: DBF2 kinase activator protein MOB1 (Saccharomyces cerevisiae), P40484 (parent)
chain: B1 chain
partner: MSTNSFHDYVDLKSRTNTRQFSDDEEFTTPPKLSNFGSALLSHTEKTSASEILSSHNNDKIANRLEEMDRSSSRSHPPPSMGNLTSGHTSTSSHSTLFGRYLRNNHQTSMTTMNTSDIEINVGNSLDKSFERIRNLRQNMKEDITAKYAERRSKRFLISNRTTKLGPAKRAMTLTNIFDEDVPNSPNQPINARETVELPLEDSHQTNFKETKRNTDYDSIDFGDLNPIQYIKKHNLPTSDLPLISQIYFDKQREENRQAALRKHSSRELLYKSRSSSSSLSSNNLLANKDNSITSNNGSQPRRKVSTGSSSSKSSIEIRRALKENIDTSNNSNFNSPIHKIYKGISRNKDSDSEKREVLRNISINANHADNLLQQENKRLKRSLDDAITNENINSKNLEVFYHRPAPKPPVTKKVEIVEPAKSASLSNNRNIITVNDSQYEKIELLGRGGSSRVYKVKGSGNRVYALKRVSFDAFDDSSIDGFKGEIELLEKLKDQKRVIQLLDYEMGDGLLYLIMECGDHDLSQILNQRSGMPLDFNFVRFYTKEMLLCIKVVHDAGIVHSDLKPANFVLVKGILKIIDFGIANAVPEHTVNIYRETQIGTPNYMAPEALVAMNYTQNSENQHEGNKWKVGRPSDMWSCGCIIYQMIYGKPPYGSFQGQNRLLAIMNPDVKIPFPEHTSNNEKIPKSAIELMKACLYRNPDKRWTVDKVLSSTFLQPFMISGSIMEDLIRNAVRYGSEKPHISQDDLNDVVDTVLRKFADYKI
B3: DBF2 kinase activator protein MOB1 (Saccharomyces cerevisiae), P40484 (parent)
chain: B1 chain
partner: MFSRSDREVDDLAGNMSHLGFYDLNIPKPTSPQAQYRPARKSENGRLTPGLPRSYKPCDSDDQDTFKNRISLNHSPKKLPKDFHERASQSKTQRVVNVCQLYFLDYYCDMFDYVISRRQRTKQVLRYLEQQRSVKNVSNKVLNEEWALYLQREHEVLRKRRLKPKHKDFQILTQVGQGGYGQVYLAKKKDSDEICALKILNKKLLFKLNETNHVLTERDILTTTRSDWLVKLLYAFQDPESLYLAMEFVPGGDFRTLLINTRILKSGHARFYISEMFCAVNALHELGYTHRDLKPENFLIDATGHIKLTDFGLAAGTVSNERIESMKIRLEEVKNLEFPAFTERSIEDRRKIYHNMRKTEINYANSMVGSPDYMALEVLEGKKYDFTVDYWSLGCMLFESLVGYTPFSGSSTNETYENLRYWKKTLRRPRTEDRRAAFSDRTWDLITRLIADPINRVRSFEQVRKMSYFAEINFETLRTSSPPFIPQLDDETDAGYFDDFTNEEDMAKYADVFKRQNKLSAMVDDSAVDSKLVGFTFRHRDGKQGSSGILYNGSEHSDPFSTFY

One assay covers variants of B1. The settings on record: with dbf2_yeast DBF2, P22204.
Take MSFLQNFHISPGQTIRSTRGFKWNTANAANNAGSVSPTKATPHNNTINGNNNNANTINNRADFTNNPVNGYNESDHGRMSPVLTTPKRHAPPPEQLQNVTDFNYTPSHQKPFLQPQAGTTVTTHQDIKQIVEMTLGSEGVLNQAVKLPRGEDENEWPIVHCVDFYNQINMLYGSITEFCSPQTCPRMIATNEYEYLWAFQKGQPPVSVSAPKYVECLMRWCQDQFDDESLFPSKVTGTFPEGFIQRVIQPILRRLFRVYAHIYCHHFNEILELNLQTVLNTSFRHFCLFAQEFELLRPADFGPLLELVMELRDR [L157P;A158I]: the “effect of a mutation on the interaction” value was “disrupting interaction strength”.
Consider MSFLQNFHISPGQTIRSTRGFKWNTANAANNAGSVSPTKATPHNNTINGNNNNANTINNRADFTNNPVNGYNESDHGRMSPVLTTPKRHAPPPEQLQNVTDFNYTPSHQKPFLQPQAGTTVTTHQDIKQIVEMTLGSEGVLNQAVKLPRGKDENEWLAVHCVDFYNQINMLYGSITEFCSPQTCPRMIATNEYEYLWAFQKGQPPVSVSAPKYVECLMRWCQDQFDDESLFPSKVTGTFPEGFIQRVIQPILRRLFRVYAHIYCHHFNEILELNLQTVLNTSFRHFCLFAQEFELLRPADFGPLLELVMELRDR [E151K], for which the “effect of a mutation on the interaction” value is listed as “disrupting interaction strength”.
On to MSFLQNFHISPGQTIRSTRGFKWNTANAANNAGSVSPTKATPHNNTINGNNNNANTINNRADFTNNPVNGYNESDHGRMSPVLTPPKRHAPPPEQLQNVTDFNYTPSHQKPFLQPQAGTTVTTHQDIKQIVEMTLGSEGVLNQAVKLPRGEDENEWLAVHCVDFYNRINMLYGSITEFCSPQHCPRMIATNEYEYLWAFQKGQPPVSVSAPKYVECLMRWCQDQFDDESLFPSKVTGTFPEGFIQRVIQPILRRLFRVYAHIYCHHFNEILELNLQTVLNTSFRHFCLFAQEFELLRPADFGPLLELVMELRDR [T85P;Q167R;T183H], for which the “effect of a mutation on the interaction” value is “decreasing interaction strength”.

In a further assay the parent is B2. The settings on record: with mps1_yeast MPS1, P54199.
For MSFLQNFHISPGQTIRSTRGFKWNTANAANNAGSVSPTKATPHNNTINGNNNNANTINNRADFTNNPVNGYNESDHGRMSPVLTTPKRHAPPPEQLQNVTDFNYTPSHQKPFLQPQAGTTVTTHQDIKQIVEMTLGSEGVLNQAVKLPRGEDENEWPIVHCVDFYNQINMLYGSITEFCSPQTCPRMIATNEYEYLWAFQKGQPPVSVSAPKYVECLMRWCQDQFDDESLFPSKVTGTFPEGFIQRVIQPILRRLFRVYAHIYCHHFNEILELNLQTVLNTSFRHFCLFAQEFELLRPADFGPLLELVMELRDR [L157P;A158I], the “effect of a mutation on the interaction” value is recorded as “with no effect”.
With MSFLQNFHISPGQTIRSTRGFKWNTANAANNAGSVSPTKATPHNNTINGNNNNANTINNRADFTNNPVNGYNESDHGRMSPVLTTPKRHAPPPEQLQNVTDFNYTPSHQKPFLQPQAGTTVTTHQDIKQIVEMTLGSEGVLNQAVKLPRGKDENEWLAVHCVDFYNQINMLYGSITEFCSPQTCPRMIATNEYEYLWAFQKGQPPVSVSAPKYVECLMRWCQDQFDDESLFPSKVTGTFPEGFIQRVIQPILRRLFRVYAHIYCHHFNEILELNLQTVLNTSFRHFCLFAQEFELLRPADFGPLLELVMELRDR [E151K], the “effect of a mutation on the interaction” value was “with no effect”.
The same measure, in the same setting: the value for MSFLQNFHISPGQTIRSTRGFKWNTANAANNAGSVSPTKATPHNNTINGNNNNANTINNRADFTNNPVNGYNESDHGRMSPVLTPPKRHAPPPEQLQNVTDFNYTPSHQKPFLQPQAGTTVTTHQDIKQIVEMTLGSEGVLNQAVKLPRGEDENEWLAVHCVDFYNRINMLYGSITEFCSPQHCPRMIATNEYEYLWAFQKGQPPVSVSAPKYVECLMRWCQDQFDDESLFPSKVTGTFPEGFIQRVIQPILRRLFRVYAHIYCHHFNEILELNLQTVLNTSFRHFCLFAQEFELLRPADFGPLLELVMELRDR [T85P;Q167R;T183H] was “decreasing interaction strength”.

A further assay covers variants of B3. The settings on record: with dbf20_yeast DBF20, P32328.
With MSFLQNFHISPGQTIRSTRGFKWNTANAANNAGSVSPTKATPHNNTINGNNNNANTINNRADFTNNPVNGYNESDHGRMSPVLTTPKRHAPPPEQLQNVTDFNYTPSHQKPFLQPQAGTTVTTHQDIKQIVEMTLGSEGVLNQAVKLPRGEDENEWPIVHCVDFYNQINMLYGSITEFCSPQTCPRMIATNEYEYLWAFQKGQPPVSVSAPKYVECLMRWCQDQFDDESLFPSKVTGTFPEGFIQRVIQPILRRLFRVYAHIYCHHFNEILELNLQTVLNTSFRHFCLFAQEFELLRPADFGPLLELVMELRDR [L157P;A158I], the “effect of a mutation on the interaction” value is “disrupting interaction strength”.
With MSFLQNFHISPGQTIRSTRGFKWNTANAANNAGSVSPTKATPHNNTINGNNNNANTINNRADFTNNPVNGYNESDHGRMSPVLTTPKRHAPPPEQLQNVTDFNYTPSHQKPFLQPQAGTTVTTHQDIKQIVEMTLGSEGVLNQAVKLPRGKDENEWLAVHCVDFYNQINMLYGSITEFCSPQTCPRMIATNEYEYLWAFQKGQPPVSVSAPKYVECLMRWCQDQFDDESLFPSKVTGTFPEGFIQRVIQPILRRLFRVYAHIYCHHFNEILELNLQTVLNTSFRHFCLFAQEFELLRPADFGPLLELVMELRDR [E151K], the “effect of a mutation on the interaction” value was “disrupting interaction strength”.
As to MSFLQNFHISPGQTIRSTRGFKWNTANAANNAGSVSPTKATPHNNTINGNNNNANTINNRADFTNNPVNGYNESDHGRMSPVLTPPKRHAPPPEQLQNVTDFNYTPSHQKPFLQPQAGTTVTTHQDIKQIVEMTLGSEGVLNQAVKLPRGEDENEWLAVHCVDFYNRINMLYGSITEFCSPQHCPRMIATNEYEYLWAFQKGQPPVSVSAPKYVECLMRWCQDQFDDESLFPSKVTGTFPEGFIQRVIQPILRRLFRVYAHIYCHHFNEILELNLQTVLNTSFRHFCLFAQEFELLRPADFGPLLELVMELRDR [T85P;Q167R;T183H], the “effect of a mutation on the interaction” value is recorded as “disrupting interaction strength”.
